B3: B7 antigen (B7-1) stably expressed on CHO cells (ligand, human, UniProt P33681 35-288, looked up)
chain: VIHVTKEVKEVATLSCGHNVSVEELAQTRIYWQKEKKMVLTMMSGDMNIWPEYKNRTIFDITNNLSIVILALRPSDEGTYECVVLKYEKDAFKREHLAEVTLSVKADFPTPSISDFEIPTSNIRRIICSTSGGFPEPHLSWLENGEELNAINTTVSQDPETELYAVSSKLDFNMTTNHSFMCLIKYGHLRVNQTFNWNTTKQEHFPDNLLPSWAITLISVNGIFVICCLTYCFAPRCRERRRNERLRRESVRPV
notes: whole, on cells; also called B7/BB-1; CD80

Key:
[1] = biological target: B7Ig fusion protein (human) (UniProt P33681); experiment: solid phase competition for binding of 125I-B7Ig (4 nM) to immobilized CTLA4Ig
[2] = biological target: B7 antigen on lymphoblastoid cell line (PM LCL) (human) (UniProt P33681); experiment: cell-based or functional assay
[3] = biological target: B3; experiment: indirect cell binding enzyme immunoassay on ethanol-fixed B7-1+ CHO cells
CTLA4Ig fusion protein = biological target: T1, CTLA4Ig fusion protein (human, UniProt P01857-1 99-330 = IgG part); experiment: immunoprecipitation from 125I surface-labeled B7+ CHO extract, SDS-PAGE
T1 construct: domain: hinge, CH2 and CH3 regions; also called wild-type CTLA4Ig; human CTLA4Ig

Work on “murine monoclonal antibody BB-1 (anti-B7 antigen)” yielded an IC50 [1] of 22 nM and an inhibition of Th-induced IgM production by allogeneic CD19+ B cells (ELISA) [2] of 65%.

B1: CTLA4/CD28Ig hybrid fusion protein HS6 (Fc fusion, human)
chain: AMHVAQPAVVLASSRGIASFVCEYSYNLFSREVRVTVLRQADSQVTEVCAATYMMGNELTFLDDSICTGTSSGNQVNLTIQGLRAMDTGLYICKVELMYPPPYYLGIGNGTQIYVIDPEPCPD
notes: range 25-32; not shown: hinge and constant regions of human IgG1, hinge cysteines mutated; junction printed DQE
B1: binds [3].

B2: CTLA4/CD28Ig hybrid fusion protein HS2 (Fc fusion, human)
chain: AMHVAQPAVVLASSRGIASFVCKYSYNLFSREFRASLHKGLDSAVEVCVVYGNYSQQLQVYSKTGFNCDGKLGNESVTFYLQNLYVNQTDIYFCKIELMYPPPYYLGIGNGTQIYVIDPEPCPD
notes: range 23-96; not shown: hinge and constant regions of human IgG1, hinge cysteines mutated; junction printed DQE
B2: binds [3].

B3: binds (CTLA4Ig fusion protein).
